Laboratory results from US20250195685A1 (CAPSTAN THERAPEUTICS, published 2025).
Numbering of substitutions follows the chain as printed. Names may count otherwise. One block for each binder: values may come before it.

Experiments:
insulin (Sigma) = molecular target: T1, insulin (Sigma); test: polyreactive ELISA, insulin coated, 100 nM antibody
T1 construct: Antigen of the polyreactivity ELISA
Experimental: Insulin ([…]; Sigma) and dsDNA ([…]; Sigma) were coated onto 96-well high-binding ELISA microplates (Corning) at 50 μL per well overnight at 4° C. Plates were blocked with PBS with 0.5% BSA (blocking buffer) at room temperature (RT) for 1 h, followed by three washes with PBST (PBS with 0.1% Tween-20). 50 μL of 100 nM antibody in blocking buffer was added to each well and incubated at RT for 1 h, followed by six washes with 100 μL of PBS. 50 μL of diluted anti-human IgG-horseradish peroxidase (HRP) conjugate (Jackson ImmunoResearch) was added to the wells and incubated for 1 h followed by another six washes. Finally, 50 μL of 3, 3′, 5, 5′-Tetramethylbenzidine (TMB) substrate (Fisher Scientific) was added to each well to develop the detection signal. The reactions were stopped by adding 50 μL of 2 M sulfuric acid to each well. The absorbance was measured at 450 nm using a multimode microplate reader. Ustekinumab as the control antibody with low polyreactivity and bococizumab as a highly polyreactive antibody control were also included in the polyreactive ELISA assessment.
The first assessment tested for low non-specific binding to dsDNA and insulin by ELISA. […] Thus, by this standard, none of the tested antibodies were polyreactive.

[1] = molecular target: T2, human CD8αα homodimer, recombinant protein (Acro Biosystems) (human, UniProt P01732 22-182); test: BLI steady state, whole hIgG1-LALAPA antibody on CD8α-His (Ni-NTA sensor), 30 °C
T2 construct: also called CD8αα antigen; biotinylated CD8α recombinant protein (CDA-H82E3)
Experimental: (§1) To assess affinity of whole antibodies, steady state analysis was used as the bivalent nature of both whole antibody and CD8α complicates kinetic analysis. 50 nM CD8α-His (that is, CD8α with a C-terminal oligohistidine tag; Acro) was immobilized on Ni-NTA sensor probes. Binding was analyzed with a three-fold antibody dilutions series: 60 nM, 20 nM, 6.67 nM, 2.22 nM, 0.74 nM, and 0.25 nM. The antigen-loaded sensors were incubated in the diluted solutions to capture the whole IgG antibody for 300 s to record the association phase. Sensors were incubated in the kinetic buffer for 900 s to record the dissociation phase. The spin speed was 1000 rpm for all steps except the antigen loading step which was 400 rpm to control density of the antigen. The temperature of the performed assays was at 30° C. during the association and dissociation phases. The sensor data were baseline subtracted and further analyzed in GatorOne software (version 2.10) to determine the equilibrium dissociation constants (KD) of the antibodies by fitting the signals of the steady states to the 1:1 binding model.

[2] = molecular target: T3, human CD8 on cells (CD8-overexpressing HEK293T cells, SupT1, HPB-ALL, human T cells, transfected HEK293 of … (human, UniProt P01732 22-235)); test: flow cytometry on CD8-overexpressing HEK293T cells, non-linear fit of normalized gMFI
T3 construct: whole, on cells; also called cell surface CD8
Experimental: To obtain the results shown in FIG. 3A, that determined EC₅₀ values for antigen-specific binding, CD8-overexpressing HEK293T cells were dissociated in Versine solution (PBS buffer at pH 7.4 supplemented with 0.5 mM EDTA), and 2×10⁵ total cells were transferred to a V-bottom 96 well culture plate (Corning). Cells were washed twice with Cell Staining buffer (#420201, Biolegend). Each anti-CD8α antibody with human IgG1 isotype and Fc-silencing mutations L234A, L235A and P329A was diluted in four-fold antibody titration series from 100 μg/mL to 6.1 ng/ml into Cell Staining buffer. eFluor 780 Fixable Viability dye (eBioscience) was also included during antibody solutions at a 1:4000 dilution. Cells were stained with each diluted antibody solution for 30 minutes on ice. Cells were then washed three times with Cell Staining buffer and primary antibody binding was detected by staining with anti-human Fc BV421 conjugate antibody (#410704, Biolegend) at 1:100 dilution for 30 minutes on ice. After staining with the secondary detection antibody, cells were washed three times with Cell Staining buffer, fixed in FluoroFix buffer (Biolegend) and kept at 4° C. in the dark until analysis. Flow cytometry analysis on each sample was performed on an Agilent NovoCyte flow cytometer. Flow cytometry data was analyzed by Flowjo 10 (Becton, Dickinson & Company) to measure the geometric median fluorescence intensity (gMFI) of the on-cell binding from each antibody. The gMFI values were normalized with the gMFI measured in the sample stained with only the secondary detection antibody and plotted against the concentration of the added antibodies. The binding curves were constructed using the Graphpad Prism software, and EC₅₀ values were determined by non-linear curve fitting.

[3] = molecular target: T4, custom recombinant human CD8α mouse IgG2a Fc fusion protein (human; mouse, UniProt P01732 22-182, limits assumed); test: BLI kinetic sensorgram, 1:1 global fit, 37 °C
T4 construct: Custom protein; also called human CD8α mouse Fc fusion protein; not shown: mouse IgG2a Fc
Experimental: (§2) The global fitting was performed with a 1:1 fitting model using GatorOne software as described below.
(§3) To measure the binding kinetics of the biotin-conjugated Fab molecule, streptavidin-immobilized SA-XT sensors (#160029, Gator Bio) were prehydrated in the kinetic buffer and loaded with […] biotinylated Fab sample CBD1033.37 or CBD1033.24 to a threshold response of 10 nm. […] The binder-loaded sensors were incubated in the diluted solutions to capture the CD8α protein for 1200 s to record the association phase. Sensors were finally incubated in the kinetic buffer for another 1200 s to record the dissociation phase. The spin speed for all steps was 1000 rpm. The temperature of the performed assays were at 37° C. during the association and dissociation. The sensor data were baseline subtracted, and global curve fitting of the kinetic data from six different analyte concentrations at a 1:1 monovalent binding model was performed using the GatorOne software (version v2.10) to determine the kinetic rate constants (kₒₙ and koff) and equilibrium dissociation constants (KD) of the analyzed binder.

[4] = molecular target: T4, custom recombinant human CD8α mouse …; test: BLI kinetics, biotin-conjugated F(ab') on SA-XT sensor, HuCD8a mouse Fc fusion as analyte, 37 °C
Experimental: as §2, §3

[5] = molecular target: T2, human CD8αα homodimer, recombinant …; test: BLI kinetic sensorgram, 1:1 global fit
Experimental: as §2, §3

[6] = molecular target: T2, human CD8αα homodimer, recombinant …; test: BLI kinetic assay, engineered F(ab') fragment
Experimental: as §2
Biolayer interferometry kinetic assays were performed using a GatorBio Gator Plus BLI system. Kinetic buffer containing PBS plus 0.1% Tween 20 and 0.2% BSA was used for calculating the baseline. To measure the binding kinetics of anti-CD8α antibody fragment (Fab), streptavidin-immobilized SA-XT sensors (#160029, Gator Bio) were prehydrated in the kinetic buffer and loaded with […] biotinylated CD8α recombinant protein (CDA-H82E3, Acro Biosystems) at a spin speed of 400 rpm to a threshold response of 10 nm. The sensors were then incubated in the kinetic buffer for 300 s to acquire a baseline measurement prior to each association. […] The antigen-loaded sensors were incubated in the diluted solutions to capture Fab fragments for 300 s to record the association phase. Sensors were finally incubated in the kinetic buffer for 900 s to record the dissociation phase. The spin speed for all steps except the antigen loading step was 1000 rpm. The temperature of the performed assays was either 30° C. or 37° C. during the association and dissociation phases. Sensor data were baseline subtracted, and global curve fitting of the kinetic data from six different analyte concentrations at a 1:1 monovalent binding model was performed using GatorOne software (version v2.10) to determine kinetic rate constants (kₒₙ and koff) and equilibrium dissociation constants (KD) of the analyzed antibodies.

[7] = molecular target: T2, human CD8αα homodimer, recombinant …; test: BLI steady state analysis of the data of FIG. 2G
Experimental: as §1

[8] = molecular target: T2, human CD8αα homodimer, recombinant …; test: BLI steady state, whole hIgG1-LALAPA antibody on CD8α-His (Ni-NTA sensor), 30 °C; remark: listed apart in the source
Experimental: as §1

[9] = molecular target: T2, human CD8αα homodimer, recombinant …; test: BLI, whole antibody
[10] = molecular target: T2, human CD8αα homodimer, recombinant …; test: BLI kinetic rate KD on whole antibodies
[11] = molecular target: T2, human CD8αα homodimer, recombinant …; test: BLI, whole antibody, steady state dissociation constant (column head x10^-9M)
Experimental: as §1

T1 sequence (P01308 25-54, chain 1 of 2): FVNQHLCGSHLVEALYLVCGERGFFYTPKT
T1 sequence (P01308 90-110, chain 2 of 2): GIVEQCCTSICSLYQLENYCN
T4 sequence (P01732 22-182 limits assumed): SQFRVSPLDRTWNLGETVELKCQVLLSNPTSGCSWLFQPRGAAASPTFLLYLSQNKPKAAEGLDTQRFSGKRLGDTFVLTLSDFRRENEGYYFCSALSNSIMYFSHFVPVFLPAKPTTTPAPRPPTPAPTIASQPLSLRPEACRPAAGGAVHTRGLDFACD
T2 sequence (P01732 22-182 limits assumed): as above
T3 sequence (P01732 22-235): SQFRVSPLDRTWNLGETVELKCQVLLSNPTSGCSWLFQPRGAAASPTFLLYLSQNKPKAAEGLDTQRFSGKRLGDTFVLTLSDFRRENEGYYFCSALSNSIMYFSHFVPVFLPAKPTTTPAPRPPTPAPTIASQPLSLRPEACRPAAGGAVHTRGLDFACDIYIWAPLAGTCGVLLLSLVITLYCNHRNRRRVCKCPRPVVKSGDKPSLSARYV

polyreactivity ELISA score (insulin (Sigma)): 1
Kd [1]: 1.4 nM
EC50 [2]: 2.35 nM
B1: CBD1032 whole antibody, Fc-silenced human IgG1 (LALAPA) (antibody, V domains shown)
VH: QVQLVQSGAEVKKPGASVKVSCKASRYTFTDYNLHWVRQAPGQGLEWMGFIYPYNGGTGYAQKFQGRVTMTRDTSTSTVYMELSSLRSEDTAVYYCARDHRYNEGVSFDYWGQGTTVTVSS
VL: DIQMTQSPSSLSASVGDRVTITCRASESVDGFGNSFMNWYQQKPGKAPKLLIYLASNLESGVPSRFSGSGSGTDFTLTISSLQPEDFATYYCQQNNEDPYTFGQGTKLEIKR

Kd [3]: 6.85 nM
koff [3]: 0.000144 s⁻¹
kon [3]: 20900 M⁻¹ s⁻¹
Kd [4]: 6.85 nM
koff [4]: 0.000144 s⁻¹
kon [4]: 20900 M⁻¹ s⁻¹
B2: maleimide-PEG-biotin conjugated CBD1033.37 F(ab') (Fab, V domains shown)
VH: B1 VH with R72V, V79A
VL: B1 VL with M4L, V19A, L82V
modifications: maleimide-PEG11-biotin on CH C230 (sequential numbering, corresponding to C239 in Kabat numbering)
notes: Loaded on streptavidin sensors through the biotin; also called biotinylated Fab sample CBD1033.37

Kd [5]: 4.01 nM
koff [5]: 6.28e-05 s⁻¹
kon [5]: 15600 M⁻¹ s⁻¹
Kd [6]: 4.01 nM
koff [6]: 6.28e-05 s⁻¹
kon [6]: 15600 M⁻¹ s⁻¹
B3: CBD1033.37 disulfide-engineered F(ab') analog (IgG1-derived) (Fab, V domains shown)
VH: B1 VH with R72V, V79A
VL: B1 VL with M4L, V19A, L82V
notes: Engineered CH1-F174C / CK-S162C interchain disulfide; native disulfide removed; also called .37 design

Kd [4]: 4.01 nM
koff [4]: 0.00013 s⁻¹
kon [4]: 32400 M⁻¹ s⁻¹
B4: maleimide-PEG-biotin conjugated CBD1033.24 F(ab') (IgG4-derived) (Fab, V domains shown)
VH: B1 VH with R72V, V79A
VL: B1 VL with M4L, V19A, L82V
modifications: maleimide-PEG11-biotin on CH C227 (sequential numbering, corresponding to C239 in Kabat numbering)
notes: Loaded on streptavidin sensors through the biotin; also called biotinylated Fab sample CBD1033.24

Kd [7]: 3.91 nM
Kd [8]: 3.91 nM
B5: CBD1043 (antibody, human IgG1, kappa, L234A L235A, V domains shown)
VH: B1 VH with M48I, M70I, R72A, V79A, T116L
VL: EIVLTQSPGTLSLSPGERATLSCRASESVDGFGNSFMNWYQQKPGQAPRLLIYLASNLESGVPARFSGSGSGTDFTLTISRLEPEDFAVYYCQQNNEDPYTFGQGTKVEIKR
notes: also called CBD1043- hIgG1LALAPA; h1017-H7/L5 whole antibody

polyreactivity ELISA score (insulin (Sigma)): 1
Kd [1]: 4.63 nM
EC50 [2]: 2.71 nM
B6: CBD1034 whole antibody, Fc-silenced human IgG1 (LALAPA) (antibody, V domains shown)
VH: B1 VH with R72V, V79A
VL: B1 VL with M4L, V19A, G72R, L82V

polyreactivity ELISA score (insulin (Sigma)): 1
Kd [1]: 4.06 nM
EC50 [2]: 2.54 nM
B7: CBD1040 whole antibody, Fc-silenced human IgG1 (LALAPA) (antibody, V domains shown)
VH: B1 VH with V20I, M48I, V68A, M70L, R72V, T74Y, V79A, V117L
VL: B1 VL with M4L, V19A, G72R, L82V

koff [9]: 0.00303 s⁻¹
kon [9]: 1.1e+06 M⁻¹ s⁻¹
fold reduction of affinity compared to CBD1033 [10]: ~5.5 fold
Kd [11]: 7.94 nM
B8: CBD1383 whole antibody (VH N55D of CBD1033, deamidation mimic), Fc-silenced human IgG1 (antibody, V domains shown)
VH: B1 VH with N55D, R72V, V79A
VL: B1 VL with M4L, V19A, L82V
notes: also called 100% deamidation mimic

koff [9]: 0.000795 s⁻¹
kon [9]: 1.91e+06 M⁻¹ s⁻¹
Kd [11]: 0.5 nM
B9: CBD1381 whole antibody (VH N55Q of CBD1033), Fc-silenced human IgG1 (antibody, V domains shown)
VH: B1 VH with N55Q, R72V, V79A
VL: B1 VL with M4L, V19A, L82V

koff [9]: 0.00195 s⁻¹
kon [9]: 1.63e+06 M⁻¹ s⁻¹
Kd [11]: 0.88 nM
B10: CBD1382 whole antibody (VH N55A of CBD1033), Fc-silenced human IgG1 (antibody, V domains shown)
VH: B1 VH with N55A, R72V, V79A
VL: B1 VL with M4L, V19A, L82V

polyreactivity ELISA score (insulin (Sigma)): 1
Kd [1]: 2.66 nM
EC50 [2]: 1.75 nM
B11: CBD1035 whole antibody, Fc-silenced human IgG1 (LALAPA) (antibody, V domains shown)
VH: B1 VH with V20I, M48I, V68A, M70L, R72V, V79A, V117L
VL: B1 VL with M4L, V19A, L82V

polyreactivity ELISA score (insulin (Sigma)): 1
Kd [1]: 1.76 nM
EC50 [2]: 4.39 nM
B12: CBD1039 whole antibody, Fc-silenced human IgG1 (LALAPA) (antibody, V domains shown)
VH: B1 VH with V20I, M48I, V68A, M70L, R72V, T74Y, V79A, V117L
VL: B1 VL with M4L, V19A, L82V

koff [9]: 0.00192 s⁻¹
kon [9]: 1.86e+06 M⁻¹ s⁻¹
Kd [11]: 0.76 nM
B13: CBD1380 whole antibody (VH N55S of CBD1033), Fc-silenced human IgG1 (antibody, V domains shown)
VH: B1 VH with N55S, R72V, V79A
VL: B1 VL with M4L, V19A, L82V
